This is an account of results in PMC5995542.

Assay [1] deals with E. coli 70S ribosome termination complex labelled with Cy3 at protein L11 (PreHC, PostHC* or PostHC) (E. coli) (UniProt P0A7J7). Briefly: FRET or BRET; smFRET (TIRF), RF1(GAQ)-Cy5 (10 nM) on immobilised PostHC* (puromycin) labelled at L11-Cy3, with excess unlabelled RF3 (1 µM) and GTP (1 mM); 22°C. (Bioluminescence resonance energy transfer reports proximity on the nanometre scale.)

Assay [2] shares this target. Briefly: FRET or BRET; smFRET (TIRF) between factor-Cy5 (10 nM, in solution) and L11-Cy3 on PreHC or PostHC (peptide released by puromycin or by the factor) immobilised by mRNA-biotin:neutravidin; no RF3; imaging buffer pH 7.5, 15 mM MgCl2, 22°C; koff from residence times, limited by photobleaching (0.07–0.19 s^-1).
Assay [3] has the same target. The assay can be described thus: FRET or BRET; smFRET (TIRF), RF1(GAQ)-Cy5 (10 nM) on immobilised PreHC labelled at L11-Cy3, with excess unlabelled RF3 (1 µM) and GTP (1 mM); 22°C.
The target is the same in assay [4]. The assay can be described thus: FRET or BRET; smFRET (TIRF), RF1-Cy5 (10 nM) on immobilised L11-Cy3 PreHC converted in situ to PostHC by RF1, with excess unlabelled RF3 (1 µM) and GTP (1 mM); 22°C.
Assay [5] deals with PostHC, post-hydrolysis termination complex: E. coli 70S ribosome labelled with Cy3 at protein L11, deacylated tRNAfMet in the P site and the stop codon UAA in the A site (E. coli) (UniProt P0A7J7). The assay can be described thus: FRET or BRET; single-molecule FRET by TIRF, residence time: RF2-Cy5 (10 nM) on L11-Cy3 PostHC (peptide released by RF2) immobilised through mRNA-biotin:neutravidin; no RF3; imaging buffer pH 7.5, 15 mM MgCl2, 22°C.

The target is the same in assay [6]. The assay can be described thus: FRET or BRET; single-molecule FRET by TIRF, residence time: RF3-Cy5 (10 nM) with GDPNP (1 mM) on L11-Cy3 PostHC immobilised through mRNA-biotin:neutravidin; with saturating unlabelled RF1 (1 µM).

In the case of “RF1(GAQ)-Cy5 (catalytically impaired RF1(G234A), Cy5-labelled) (from UniProt P0A7I0 1-360) (natural protein)”, the koff was 1.3 s⁻¹ in assay [1], < 0.2 s⁻¹ in assay [2] and < 0.3 s⁻¹ in assay [3]. In assay [1], this substance displayed a koff of the small fraction (8%) of complexes that release RF1(GAQ) slowly of 0.12 s⁻¹.
As for “RF1-Cy5 (release factor RF1, single-cysteine variant RF1(S167C) labelled with Cy5) (from UniProt P0A7I0 1-360) (natural protein)”, the koff in assay [4] is 1.2 s⁻¹; in assay [2] it was < 0.2 s⁻¹.
Consider “RF2-Cy5, single-cysteine release factor RF2(C273) labelled with Cy5 (from UniProt P07012 1-365) (natural protein)”, for which, in assay [5], the koff was 0.84 s⁻¹.
In assay [6], “RF3-Cy5, single-cysteine release factor RF3(L233C) labelled with Cy5 (from UniProt P0A7I4 1-529) (natural protein)” gave a koff of 2.5 s⁻¹.

For orientation: koff means a measure of how fast the partners let go of each other.
